Measurements as given in the supplement of paper PMC10065799, “High-throughput profiling of sequence recognition by tyrosine kinases and SH2 domains using bacterial peptide display” (eLife, 2023).

Experiments:
[1] = target: SHP2-C SH2; test: SH2 binding enrichment of the phosphorylated peptide, bacterial display (enrichment ratio); higher = better substrate or ligand; peptides without Tyr show the background
[2] = target: Grb2 SH2 (UniProt P62993); test: as above
[3] = target: c-Src SH2; test: as above
[4] = tested on: c-Src; test: phosphorylation enrichment, bacterial display (enrichment ratio); higher = better substrate or ligand; peptides without Tyr show the background
[5] = target: FGFR3 (UniProt P22607); test: as above
[6] = tested on: Fer (mouse); test: as above
[7] = tested on: c-Abl (mouse); test: as above
[8] = target: EPHB2 (UniProt P29323); test: as above
[9] = target: Fes (UniProt P07332); test: as above
[10] = target: MERTK (UniProt Q12866); test: as above
[11] = tested on: AncSZ; test: as above
[12] = target: EPHB1 (UniProt P54762); test: as above
[13] = target: Jak2 (UniProt O60674); test: as above
[14] = target: Hck (UniProt P08631); test: as above
[15] = target: Fyn (UniProt P06241); test: as above
[16] = target: FGFR1 (UniProt P11362); test: as above
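Throughout, for SH2 binding enrichment of the phosphorylated peptide, bacterial display: peptide library displayed on the E. coli surface as eCPX fusions, selected cells deep-sequenced, score is each peptide's frequency after selection divided by its frequency in the input.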
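Throughout, for phosphorylation enrichment, bacterial display: 11-residue human phosphosite peptides and single-mutation variants displayed on the E. coli surface, counted by deep sequencing, each peptide's frequency after selection divided by its frequency in the unselected input library; frequency after pTyr selection over input frequency; kinase dosed for 20-30% of maximal phosphorylation in three min.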

Chain of FGFR3 (P22607 whole entry, looked up): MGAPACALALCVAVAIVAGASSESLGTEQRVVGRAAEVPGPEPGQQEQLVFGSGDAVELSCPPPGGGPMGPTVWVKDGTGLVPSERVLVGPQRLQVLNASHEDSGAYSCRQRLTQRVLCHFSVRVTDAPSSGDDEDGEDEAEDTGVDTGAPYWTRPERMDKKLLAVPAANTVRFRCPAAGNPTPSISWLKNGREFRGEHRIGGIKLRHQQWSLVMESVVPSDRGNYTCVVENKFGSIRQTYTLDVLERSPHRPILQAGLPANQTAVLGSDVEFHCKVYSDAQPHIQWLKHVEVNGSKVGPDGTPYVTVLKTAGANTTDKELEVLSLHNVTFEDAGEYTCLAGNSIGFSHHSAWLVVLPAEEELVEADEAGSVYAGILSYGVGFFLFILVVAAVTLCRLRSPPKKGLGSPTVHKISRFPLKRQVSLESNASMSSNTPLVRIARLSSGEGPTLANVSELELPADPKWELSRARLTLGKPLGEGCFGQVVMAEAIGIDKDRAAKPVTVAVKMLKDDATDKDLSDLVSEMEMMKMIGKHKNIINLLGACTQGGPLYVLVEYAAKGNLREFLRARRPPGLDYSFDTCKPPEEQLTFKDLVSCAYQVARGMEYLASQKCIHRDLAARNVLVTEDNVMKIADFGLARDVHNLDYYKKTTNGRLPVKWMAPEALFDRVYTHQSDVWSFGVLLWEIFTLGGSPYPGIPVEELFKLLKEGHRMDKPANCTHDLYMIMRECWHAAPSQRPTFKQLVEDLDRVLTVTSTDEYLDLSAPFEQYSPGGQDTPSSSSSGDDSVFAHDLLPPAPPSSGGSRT
Chain of Jak2 (O60674 whole entry, looked up): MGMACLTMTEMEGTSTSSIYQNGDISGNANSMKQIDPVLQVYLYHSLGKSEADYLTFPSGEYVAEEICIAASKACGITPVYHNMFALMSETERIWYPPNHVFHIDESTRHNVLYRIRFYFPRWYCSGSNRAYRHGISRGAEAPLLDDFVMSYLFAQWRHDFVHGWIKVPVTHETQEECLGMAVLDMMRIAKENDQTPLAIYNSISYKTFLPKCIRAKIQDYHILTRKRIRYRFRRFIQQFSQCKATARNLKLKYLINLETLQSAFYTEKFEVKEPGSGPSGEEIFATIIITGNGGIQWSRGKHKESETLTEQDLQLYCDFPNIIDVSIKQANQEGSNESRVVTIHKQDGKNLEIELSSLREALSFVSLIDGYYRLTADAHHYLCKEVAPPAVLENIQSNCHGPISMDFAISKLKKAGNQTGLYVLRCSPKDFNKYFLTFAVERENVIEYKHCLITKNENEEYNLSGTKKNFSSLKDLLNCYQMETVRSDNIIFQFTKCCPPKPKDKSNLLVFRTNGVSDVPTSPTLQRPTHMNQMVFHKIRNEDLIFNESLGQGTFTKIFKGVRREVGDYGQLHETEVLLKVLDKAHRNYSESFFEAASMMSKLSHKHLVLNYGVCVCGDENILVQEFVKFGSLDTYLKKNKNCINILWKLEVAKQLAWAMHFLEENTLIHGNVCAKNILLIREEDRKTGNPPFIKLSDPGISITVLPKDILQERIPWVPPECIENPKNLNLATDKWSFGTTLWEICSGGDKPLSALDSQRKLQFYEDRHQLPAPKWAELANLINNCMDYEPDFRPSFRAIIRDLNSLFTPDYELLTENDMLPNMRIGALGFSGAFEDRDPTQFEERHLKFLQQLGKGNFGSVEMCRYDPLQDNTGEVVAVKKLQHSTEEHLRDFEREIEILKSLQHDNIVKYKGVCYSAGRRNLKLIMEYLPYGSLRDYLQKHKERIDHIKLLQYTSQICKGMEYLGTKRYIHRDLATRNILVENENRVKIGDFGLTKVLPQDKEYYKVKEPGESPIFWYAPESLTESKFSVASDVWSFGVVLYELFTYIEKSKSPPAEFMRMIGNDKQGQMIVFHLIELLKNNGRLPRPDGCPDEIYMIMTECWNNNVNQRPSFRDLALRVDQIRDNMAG
Chain of Fyn (P06241 whole entry, looked up): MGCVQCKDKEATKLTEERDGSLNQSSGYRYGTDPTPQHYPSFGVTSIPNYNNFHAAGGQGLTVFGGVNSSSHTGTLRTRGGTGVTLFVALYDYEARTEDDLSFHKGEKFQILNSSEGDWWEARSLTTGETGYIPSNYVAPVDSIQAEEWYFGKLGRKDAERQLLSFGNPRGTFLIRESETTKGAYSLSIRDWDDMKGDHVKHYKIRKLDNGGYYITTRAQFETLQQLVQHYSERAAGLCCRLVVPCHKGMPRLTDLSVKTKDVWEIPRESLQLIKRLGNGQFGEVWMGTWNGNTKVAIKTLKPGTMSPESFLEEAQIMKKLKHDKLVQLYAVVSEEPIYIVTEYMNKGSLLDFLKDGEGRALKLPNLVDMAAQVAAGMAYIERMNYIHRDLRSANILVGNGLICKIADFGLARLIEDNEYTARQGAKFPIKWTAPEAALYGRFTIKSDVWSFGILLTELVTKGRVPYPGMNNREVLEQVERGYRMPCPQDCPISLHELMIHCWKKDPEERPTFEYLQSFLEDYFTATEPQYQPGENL
Chain of FGFR1 (P11362 whole entry, looked up, the tested form may be a part): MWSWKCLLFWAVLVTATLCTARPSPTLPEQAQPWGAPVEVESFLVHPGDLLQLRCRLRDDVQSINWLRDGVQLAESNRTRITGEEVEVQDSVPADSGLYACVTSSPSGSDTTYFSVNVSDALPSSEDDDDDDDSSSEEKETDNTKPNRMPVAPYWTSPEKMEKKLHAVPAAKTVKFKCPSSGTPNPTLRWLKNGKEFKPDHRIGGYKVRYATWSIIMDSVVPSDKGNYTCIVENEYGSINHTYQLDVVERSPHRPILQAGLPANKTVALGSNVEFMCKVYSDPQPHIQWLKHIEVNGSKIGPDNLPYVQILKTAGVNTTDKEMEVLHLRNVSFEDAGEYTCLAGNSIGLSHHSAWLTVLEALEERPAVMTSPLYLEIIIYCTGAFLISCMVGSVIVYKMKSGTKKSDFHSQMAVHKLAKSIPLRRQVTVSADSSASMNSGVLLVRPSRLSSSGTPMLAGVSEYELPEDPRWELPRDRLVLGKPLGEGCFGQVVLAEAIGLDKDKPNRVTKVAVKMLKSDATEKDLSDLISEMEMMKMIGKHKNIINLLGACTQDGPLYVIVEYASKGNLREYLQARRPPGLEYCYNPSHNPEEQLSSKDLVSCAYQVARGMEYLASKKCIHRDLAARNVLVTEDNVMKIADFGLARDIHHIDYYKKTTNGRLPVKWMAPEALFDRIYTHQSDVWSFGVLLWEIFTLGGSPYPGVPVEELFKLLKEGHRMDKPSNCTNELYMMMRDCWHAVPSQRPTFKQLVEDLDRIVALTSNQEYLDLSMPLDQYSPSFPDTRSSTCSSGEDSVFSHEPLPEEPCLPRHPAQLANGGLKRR
Chain of EPHB2 (P29323 whole entry, looked up): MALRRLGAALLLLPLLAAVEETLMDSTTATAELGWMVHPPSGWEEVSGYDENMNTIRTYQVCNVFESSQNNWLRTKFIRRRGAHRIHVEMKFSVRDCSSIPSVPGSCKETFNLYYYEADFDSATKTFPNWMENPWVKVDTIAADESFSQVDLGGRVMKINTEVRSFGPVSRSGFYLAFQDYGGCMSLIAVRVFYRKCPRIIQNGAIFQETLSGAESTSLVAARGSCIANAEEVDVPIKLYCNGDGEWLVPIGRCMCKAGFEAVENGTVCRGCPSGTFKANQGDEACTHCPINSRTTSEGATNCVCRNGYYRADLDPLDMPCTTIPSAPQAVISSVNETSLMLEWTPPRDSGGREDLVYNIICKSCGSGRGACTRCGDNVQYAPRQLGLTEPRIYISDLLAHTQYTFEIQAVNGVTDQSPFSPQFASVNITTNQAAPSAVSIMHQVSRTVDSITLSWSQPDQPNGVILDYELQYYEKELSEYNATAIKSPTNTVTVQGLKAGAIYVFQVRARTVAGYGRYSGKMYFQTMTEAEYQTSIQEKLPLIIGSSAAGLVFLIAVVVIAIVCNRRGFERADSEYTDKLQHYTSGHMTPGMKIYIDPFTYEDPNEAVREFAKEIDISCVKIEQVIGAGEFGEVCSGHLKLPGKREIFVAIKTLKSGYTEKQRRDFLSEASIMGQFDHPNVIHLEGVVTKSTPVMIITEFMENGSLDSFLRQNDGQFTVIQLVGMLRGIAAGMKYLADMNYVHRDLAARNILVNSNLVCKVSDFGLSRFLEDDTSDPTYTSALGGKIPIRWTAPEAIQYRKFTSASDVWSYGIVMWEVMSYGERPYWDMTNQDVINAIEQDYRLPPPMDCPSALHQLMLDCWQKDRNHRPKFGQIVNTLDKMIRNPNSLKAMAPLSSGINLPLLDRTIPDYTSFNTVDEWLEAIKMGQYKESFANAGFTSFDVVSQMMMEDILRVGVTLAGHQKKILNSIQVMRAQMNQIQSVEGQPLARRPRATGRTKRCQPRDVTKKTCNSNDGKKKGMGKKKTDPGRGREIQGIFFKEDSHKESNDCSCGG
Chain of Hck (P08631 whole entry, looked up): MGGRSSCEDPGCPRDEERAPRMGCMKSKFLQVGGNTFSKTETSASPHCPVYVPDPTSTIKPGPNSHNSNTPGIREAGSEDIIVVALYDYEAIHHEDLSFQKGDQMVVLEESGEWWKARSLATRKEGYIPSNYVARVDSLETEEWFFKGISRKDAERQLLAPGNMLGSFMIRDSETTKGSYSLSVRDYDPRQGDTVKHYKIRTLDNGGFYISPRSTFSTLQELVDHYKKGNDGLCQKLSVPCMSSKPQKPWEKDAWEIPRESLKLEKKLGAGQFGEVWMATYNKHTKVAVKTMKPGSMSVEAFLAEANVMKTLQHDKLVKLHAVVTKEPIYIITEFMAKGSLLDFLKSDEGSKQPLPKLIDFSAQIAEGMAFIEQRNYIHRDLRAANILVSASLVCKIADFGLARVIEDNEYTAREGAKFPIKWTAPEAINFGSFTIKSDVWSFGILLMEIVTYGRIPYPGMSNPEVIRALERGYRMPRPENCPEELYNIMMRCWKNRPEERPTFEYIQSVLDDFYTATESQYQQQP

Row | Sequence | SH2 binding enrichment [1] | SH2 binding enrichment [2] | SH2 binding enrichment [3] | phosphorylation enrichment [4] | phosphorylation enrichment [5] | phosphorylation enrichment [6] | phosphorylation enrichment [7] | phosphorylation enrichment [8] | phosphorylation enrichment [9] | phosphorylation enrichment [10] | phosphorylation enrichment [11] | phosphorylation enrichment [12] | phosphorylation enrichment [13] | phosphorylation enrichment [14] | phosphorylation enrichment [15] | phosphorylation enrichment [16]
1 | SQSPHYFRSGR [GPATCH8_Y1038] | 0.411 | 0.731 | 0.394 | 0.538 | 0.425 | 0.427 | 0.544 | 0.394 | 0.819 | 0.502 | 0.719 | 0.56 | 0.687 | 0.389 | 0.476 | 0.383
2 | SREALYNETDP [CACNA1A_Y794_M797T] | 0.641 | 0.89 | 0.764 | 0.722 | 0.815 | 0.663 | 0.996 | 0.642 | 1.37 | 0.625 | 1.16 | 0.67 | 1.14 | 0.739 | 0.624 | 0.559
3 | SRGSSYSSIPK [FLNC_Y2625] | 0.563 | 0.769 | 1.02 | 0.444 | 0.362 | 0.37 | 0.428 | 0.322 | 0.518 | 0.489 | 0.474 | 0.304 | 0.498 | 0.381 | 0.358 | 0.479
4 | SSFDIYHLSRE [KIR3DL2_Y253_YF] | 0.694 | 0.776 | 0.608 | 7.22 | 1.29 | 0.788 | 0.807 | 0.762 | 1.02 | 2.6 | 1.12 | 0.975 | 0.817 | 9.84 | 12.1 | 1.44
5 | SSKILYHIIKG [CDH17_Y489] | 3.78 | 0.958 | 6.59 | 0.453 | 0.923 | 0.383 | 0.438 | 0.529 | 0.798 | 1.12 | 0.565 | 0.395 | 0.63 | 0.655 | 0.45 | 1.22
6 | SSLMKYQQNVS [EGFEM1P_Y160_P157L] | 0.723 | 0.783 | 0.398 | 0.363 | 0.536 | 0.324 | 0.374 | 0.46 | 0.571 | 0.343 | 0.491 | 0.416 | 0.422 | 0.426 | 0.386 | 0.321
7 | SSPVPYLSPET [TJP1_Y931] | 0.66 | 0.851 | 0.507 | 0.422 | 0.627 | 0.453 | 0.646 | 0.502 | 0.835 | 0.409 | 0.789 | 0.442 | 0.719 | 0.445 | 0.541 | 0.482
8 | SSREEYFIGGG [GYPC_Y126_K124E] | 0.895 | 0.836 | 0.486 | 0.655 | 1.94 | 0.486 | 0.71 | 0.44 | 0.909 | 0.471 | 1.05 | 0.457 | 0.894 | 0.474 | 0.574 | 0.562
9 | SSYDTYHLSRE [KIR3DL2_Y253_I252T] | 0.529 | 0.685 | 0.632 | 3.69 | 0.569 | 0.457 | 0.657 | 0.841 | 0.713 | 0.583 | 0.709 | 0.451 | 0.527 | 4.59 | 6.54 | 0.6
10 | SSYPDYLAAVD [GLB1_Y154_D151Y] | 0.473 | 0.815 | 0.498 | 0.451 | 0.746 | 0.495 | 0.653 | 0.554 | 1.05 | 0.415 | 1.36 | 0.518 | 0.994 | 0.515 | 0.495 | 0.647
11 | SSYSRYIMMPN [LEF1_Y114_G113R] | 1.56 | 0.665 | 1.32 | 0.518 | 1.3 | 0.552 | 0.405 | 1.84 | 0.637 | 3.9 | 0.654 | 1.9 | 2.35 | 0.488 | 0.542 | 1.79
12 | STASGYSDVTD [DTX2_Y425] | 1.11 | 0.851 | 3.68 | 0.358 | 0.487 | 0.398 | 0.61 | 0.464 | 0.84 | 0.355 | 0.721 | 0.448 | 0.661 | 0.449 | 0.447 | 0.497
13 | STEAIYRRYSK [SH3PXD2B_Y42] | 0.664 | 0.836 | 0.557 | 0.52 | 0.425 | 0.341 | 0.709 | 0.441 | 0.418 | 0.466 | 0.511 | 0.302 | 0.534 | 0.425 | 0.456 | 0.41
14 | STEAIYWRFSK [SH3PXD2B_Y42_R43W_YF] | 0.495 | 0.606 | 0.434 | 2.98 | 1.13 | 0.564 | 7.78 | 0.74 | 1.51 | 1.32 | 1.2 | 1.05 | 1.29 | 2.51 | 3.69 | 0.913
15 | STEVIYQPRRK [STK11_Y36] | 0.467 | 0.585 | 0.376 | 0.704 | 0.539 | 0.473 | 1 | 0.527 | 0.523 | 0.643 | 0.603 | 0.437 | 0.612 | 0.683 | 0.52 | 0.424
16 | STLEVYRCHPP [IL21R_Y317_S318R] | 0.455 | 0.715 | 0.42 | 0.497 | 0.901 | 0.49 | 0.78 | 0.675 | 1.25 | 0.364 | 1.11 | 0.758 | 1.03 | 0.552 | 0.542 | 0.55
17 | STTIHYNYMCN [TP53_Y234_C229S] | 0.845 | 0.812 | 1.88 | 0.458 | 0.809 | 0.592 | 0.71 | 0.677 | 1.14 | 0.53 | 1 | 0.603 | 0.792 | 0.543 | 0.517 | 0.629
